Read-outs that look alike come from different tables or passages of the source.
Columns and labels:
[1] = target: keyhole limpet hemocyanin; experiment: polyreactivity ELISA
[2] = target: keyhole limpet hemocyanin; experiment: polyreactivity ELISA; remark: listed apart in the source

Bococizumab (antibody)
Binding to KLH (normalised A450) [1]: 24.4 | Binding to KLH (normalised A450) [2]: 47.1

— patent US20230357343A1
